Assay results reported in US20190077860A1 (EISAI R AND D MANAGEMENT, published 2019).

Columns and labels:
Experiment in all cases: ELISA, EphA4 extracellular region-Fc-His (1 nM) captured on the plate, antibody A titrated, HRP anti-mouse IgG detection, OD 450 nm
[1] = molecular target: T1, rat EphA4 extracellular region-Fc-His protein (rat; human, UniProt D3ZZK3 20-547)
T1 construct: range 20-547; used as culture supernatant
Method: (§1) Each well of a 96-well plate (Nunc) was coated with a […] (Jackson ImmunoResearch Laboratories). After incubation overnight at 4° C., each well was blocked with 1% BlockAce (Sumitomo Dainippon Pharma) at room temperature for 1 hour. After washing with 0.05% Tween 20/PBS (Nacalai Tesque) three times, the mouse, rat, monkey, or human EphA4 extracellular region-Fc-His protein was disseminated (final concentration: 1 nM) to each well and incubated at room temperature for 1 hour. After washing three times, a human IgG solution (100 μg/mL, Mitsubishi Pharma) and antibody A (0, 0.00128, 0.0064, 0.032, 0.16, 0.8, 4, and 20 μg/mL) were added to each well and incubated at room temperature for 1 hour. A horseradish peroxidase-labeled donkey anti-mouse IgG antibody (Jackson ImmunoResearch Laboratories) was added thereto and incubated at room temperature for 1 hour. After washing three times, a TMBZ (3,3′,5,5′-tetramethylbenzidine, Sigma-Aldrich) solution was added to each well. After confirmation of moderate color development, an equal amount of a reaction stopping solution (1N H₂SO₄, Wako Pure Chemical Industries) was added to each well. The absorbance at 450 nm was read using a microplate reader (PerkinElmer).

[2] = molecular target: T2, monkey EphA4 extracellular region-Fc-His protein (monkey; human)
T2 construct: used as culture supernatant
Method: as §1

[3] = molecular target: T3, human EphA4 extracellular region-Fc-His protein (human, UniProt P54764 20-547)
T3 construct: used as culture supernatant
Method: as §1

[4] = molecular target: T4, mouse EphA4 extracellular region-Fc-His protein (mouse; human, UniProt Q03137 20-547)
T4 construct: used as culture supernatant
Method: as §1

T2 sequence (chain, as listed by the source): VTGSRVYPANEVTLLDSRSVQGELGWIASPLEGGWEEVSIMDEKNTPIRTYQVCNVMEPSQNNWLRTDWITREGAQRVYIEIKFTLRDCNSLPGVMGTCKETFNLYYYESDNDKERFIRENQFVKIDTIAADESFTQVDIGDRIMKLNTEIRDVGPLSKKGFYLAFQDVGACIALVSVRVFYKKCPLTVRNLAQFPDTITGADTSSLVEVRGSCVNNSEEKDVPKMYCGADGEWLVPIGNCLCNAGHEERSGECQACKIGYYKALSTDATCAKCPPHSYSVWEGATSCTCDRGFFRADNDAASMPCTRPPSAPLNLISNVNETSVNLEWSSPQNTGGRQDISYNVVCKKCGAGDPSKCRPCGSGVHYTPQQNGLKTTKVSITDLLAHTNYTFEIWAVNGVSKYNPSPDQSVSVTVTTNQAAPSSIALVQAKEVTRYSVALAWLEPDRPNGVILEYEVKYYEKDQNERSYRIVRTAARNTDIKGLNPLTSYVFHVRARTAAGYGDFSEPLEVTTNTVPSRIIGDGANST
T3 sequence (P54764 20-547): as the sequence (chain, as listed by the source) above, with S406N counted along it
T4 sequence (Q03137 20-547): as the sequence (chain, as listed by the source) above, with P59A, N121S, V124G, R250Q, S251N, T270S, K378R counted along it

EC50 (read off the curve) [1]: ~100 pM
EC50 (read off the curve) [2]: ~100 pM
EC50 (read off the curve) [3]: ~100 pM
EC50 (read off the curve) [4]: ~100 pM
B1: antibody A (antibody, mouse IgG1, kappa, V domains shown)
VH: QIQLVQSGPELKKPGETVKISCKASGYTFTDYSMHWVKQAPGKGLKWMGWINTETGEPTYADDFKGRFAFSLETSASTAYLQINNLKNEDTATYFCARIPLYYYGSRYWYFDVWGAGTTVTVSS
VL: DIQMTQSPASLSVSVGETVTITCRASENIYRNLAWYQQKQGKSPQLLVYAATNLADGVPSRFSGSGSGTQYSLKINSLQSEDFGSYYCQHFWGTPWTFGGGTKLEIKR
notes: mouse IgG1 heavy chain, kappa light chain; purified from hybridoma supernatant; also called anti-EphA4 monoclonal antibody; antibody A-IgG
